Tests used:
[1] = substrate: COc1cc(/C=C/CO)ccc1O; assay: HPLC of glucoside product, double reciprocal plot; assay type: biochemical, Pyrus x bretschneideri; details: 2.5 mM UDP-glucose, 50 mM MgSO4, 200 mM KCl, 100 mM PBS pH 7.2–7.4, 35 °C, 0.1% β-mercaptoethanol, pH 7.0
From the text: (§1) HPLC of glucoside product, double reciprocal plot on PbUGT72AJ2

[2] = substrate: COc1cc(/C=C/CO)cc(OC)c1O; assay: HPLC of glucoside product, double reciprocal plot; assay type: biochemical, Pyrus x bretschneideri; details: 2.5 mM UDP-glucose, 50 mM MgSO4, 200 mM KCl, 100 mM PBS pH 7.2–7.4, 35 °C, 0.1% β-mercaptoethanol, pH 7.0
From the text: as §1

B1: PbUGT72AJ2 (Pyrus x bretschneideri) (protein)
chain: MSSKPHAAILCSPGLGHLIPSLELAKRLVTHRNFTVTIFAIPSPTSKTESELLKAAATPKFFDIIELPPPDISGCVGPNVAVVTLLAVMMREVRPAFRSAILGMEYSLRPTVLIVDLFSTESLSIGDELGIPKYVYVASTAWLVALTVYVPVFDREMEGEYVDQTEPLRIPGCKPVQPDDVVDPMLDRTDQQYLEYVRIGTNFPKSDGILMNTWEDLEHKTIDALRDEGLLGRVAKVPIYPIGPLTRSVQSAGSTSTGLREEGLFNWLDKQPCESVIFVSLGSGGTVSFEQMTEMAWGLELSKQRFIWVVRPPAKSADAAYFTSGNRDDDPSTYLPKGFLTRTHDVGLVVHLWAPQVDILSHPSIGGFWSHCGWNSSLESITNEVPMIVWPLHAEQRINATMLTEELGVAVRSKVLPLKKVVDREEIKEMVRKIMVDKDGQAIRGRVKELKLSAAKAWSVGGSSYNAISQISSGNQRKC
Which results are given for B1?
Km [1]: 117.83 ± 7.94 µM; Vmax [1]: 4.23 µM/min/mg; kcat [1]: 0.55 ± 0.02 s⁻¹; kcat/Km [1]: 4670 ± 130 M⁻¹ s⁻¹; Km [2]: 144.13 ± 22.31 µM; Vmax [2]: 3.32 µM/min/mg; kcat [2]: 0.44 ± 0.03 s⁻¹; kcat/Km [2]: 3050 ± 250 M⁻¹ s⁻¹
